{"source": "paper PMC4195752", "about": "“The Structure of an LIM-Only Protein 4 (LMO4) and Deformed Epidermal Autoregulatory Factor-1 (DEAF1) Complex Reveals a Common Mode of Binding to LMO4” (PLoS ONE, 2014)", "binders": {"B1": {"name": "DEAF1 residues 404-418 (in the tethered complex) (peptide, UniProt Q9Z1T5-1 404-418, looked up)", "chain": "IAPFPEAALPTSHPK", "notes": "Stood in the assay joined through a glycine-serine linker to the C-terminus of LMO4 77-147 on one chain; also called the DEAF1 peptide"}}, "biological_target": "T1, LMO4 second LIM domain, residues 77-147 (in the tethered complex) (mouse, UniProt P61969 77-147)", "T1 construct": "LMO4, mouse, LIM2 domain, residues 77-147; also called LMO4_(LIM2); LMO4_(77–147)", "T1 sequence (looked up)": "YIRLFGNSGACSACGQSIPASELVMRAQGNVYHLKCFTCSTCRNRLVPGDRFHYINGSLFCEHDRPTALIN", "test": "NMR solution structure; the two domains tethered on one chain by a glycine-serine linker; 20 mM sodium acetate pH 5.0, 35 mM NaCl, 0.5 mM TCEP-HCl", "settings": "both partners purified", "data": [{"binder": "B1", "values": [{"measurement": "binding result", "result": "binds"}]}]}
